Measured values as given in publication PMC9055099, “Transcription factor CsWRKY40 regulates L-theanine hydrolysis by activating the CsPDX2.1 promoter in tea leaves during withering”.

B1: cold probe (W box 2) (dsDNA)
DNA 1: TTTATTTAAGAATTGACCGTAGATAACTTT
DNA 2: AAAGTTATCTACGGTCAATTCTTAAATAAA
B2: mutant probe (TTGACC to AAAAAA) (dsDNA)
DNA 1: TTTATTTAAGAAAAAAAAGTAGATAACTTT
DNA 2: AAAGTTATCTACTTTTTTTTCTTAAATAAA
B3: CsPDX2.1 promoter W box 2 biotin probe (dsDNA)
DNA 1: B1 DNA 1
DNA 2: B1 DNA 2

How the values were obtained:
CsWRKY40 [1] = target: T1, CsWRKY40 (Camellia sinensis, UniProt A0A4S4ET85 1-292); test: competition; unlabelled competitor against biotin probe N1; shift gradually reduced with increasing cold probe; LightShift Chemiluminescent EMSA kit (ThermoFisher) per instructions; buffer, salt, pH and temperature not stated; conditions: protein: recombinant; tags: GST (pGEX-4T-1); blunt
T1 sequence (A0A4S4ET85 entry or part of it): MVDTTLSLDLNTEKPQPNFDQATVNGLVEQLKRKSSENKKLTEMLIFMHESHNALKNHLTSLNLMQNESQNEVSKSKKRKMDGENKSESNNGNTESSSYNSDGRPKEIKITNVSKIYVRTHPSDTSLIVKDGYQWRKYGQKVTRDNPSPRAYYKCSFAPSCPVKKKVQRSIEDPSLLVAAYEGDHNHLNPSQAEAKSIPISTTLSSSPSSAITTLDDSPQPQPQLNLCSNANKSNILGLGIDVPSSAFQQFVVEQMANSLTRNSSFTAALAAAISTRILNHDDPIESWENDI

CsWRKY40 [2] = target: T1, CsWRKY40; test: EMSA; LightShift Chemiluminescent EMSA kit (ThermoFisher) per instructions; buffer, salt, pH and temperature not stated; conditions: protein: recombinant; tags: GST (pGEX-4T-1); label: 3' biotin on both strands; blunt

Binder | binding result (CsWRKY40 [1]) | binding result (CsWRKY40 [2])
B1 | binds | –
B2 | – | no binding
B3 | – | binds
